Measured values from US20150259430A1 (MAB DISCOVERY, published 2015).
Blank lines part the entries; values can stand above or below the binder they belong to.

Key:
[1] = target: T1, recombinant Fc chimeric conjugate of human EGFR (human, UniProt P00533 25-645); assay: ELISA, coated antigen; supernatant IgG 1500.0 ng/ml
T1 construct: extracellular domain; Coated on the ELISA plate; also called HER1; Her1
Description: (§1) Microtiter plates were coated with a) c-Met, IGF-1R, EGFR, HER2, and/or HER3 protein or b) EGFR, HER2, and/or HER3 (recombinant Fc chimeric conjugates of human c-Met, IGF-1R, EGFR, HER2, HER3 or IL12 Rβ1). After a blocking process, specific antibodies from B-cell supernatants bind to the targets and are then detected by a POD-labeled anti-rabbit IgG antibody. The IL12R binding was used as a counter-screen.
(§2) 12.5 μL 0.5 μg/mL protein in PBS was transferred to a microtiter plate incubated and washed 3× with Wash Buffer. 90 μL Block Buffer was added to each well, incubated and washed. 12.5 μL Standard Antibody (Anti-EGF-Receptor; HER2 Rabbit anti-Human Monoclonal (extracellular domain) (SP3) Antibody; HER3 (N-terminal) antibody; start concentration 2 μg/ml; IL-12Rbeta1 antibody start concentration 500 ng/ml) in 1:2 dilutions or sample diluted in ELISA buffer was added, incubated and washed. 12.5 μl 1:5000 POD-Antibody (Anti-rabbit IgG, peroxidase-linked species-specific Fab2 fragment (from donkey) (ECL); assay dilution: 1:5000) in Elisa Buffer was added, incubated and washed. 15 μl TMB was added and 15 μl HCl was added after sufficient development. Absorbance (Optical Density O.D.) was read at 450 nm/620 nm.

[2] = target: T2, recombinant Fc chimeric conjugate of human HER2 (human, UniProt P04626 23-652); assay: as above
T2 construct: extracellular domain; Coated on the ELISA plate
Description: as §1, §2

[3] = target: T3, recombinant Fc chimeric conjugate of human HER3 (human, UniProt P21860 20-643); assay: as above
T3 construct: extracellular domain; Coated on the ELISA plate
Description: as §1, §2

[4] = target: T1, recombinant Fc chimeric conjugate of …; assay: ELISA, coated antigen; supernatant IgG 81.8 ng/ml
Description: as §1, §2

[5] = target: T2, recombinant Fc chimeric conjugate of …; assay: ELISA, coated antigen; supernatant IgG 81.8 ng/ml
Description: as §1, §2

[6] = target: T3, recombinant Fc chimeric conjugate of …; assay: ELISA, coated antigen; supernatant IgG 81.8 ng/ml
Description: as §1, §2

[7] = target: T1, recombinant Fc chimeric conjugate of …; assay: ELISA, coated antigen; supernatant IgG 719.9 ng/ml
Description: as §1, §2

[8] = target: T2, recombinant Fc chimeric conjugate of …; assay: ELISA, coated antigen; supernatant IgG 719.9 ng/ml
Description: as §1, §2

[9] = target: T3, recombinant Fc chimeric conjugate of …; assay: ELISA, coated antigen; supernatant IgG 719.9 ng/ml
Description: as §1, §2

[10] = target: T1, recombinant Fc chimeric conjugate of …; assay: ELISA, coated antigen; supernatant IgG 377.5 ng/ml
Description: as §1, §2

[11] = target: T2, recombinant Fc chimeric conjugate of …; assay: ELISA, coated antigen; supernatant IgG 377.5 ng/ml
Description: as §1, §2

[12] = target: T3, recombinant Fc chimeric conjugate of …; assay: ELISA, coated antigen; supernatant IgG 377.5 ng/ml
Description: as §1, §2

[13] = target: T1, recombinant Fc chimeric conjugate of …; assay: ELISA, coated antigen; supernatant IgG 1148.9 ng/ml
Description: as §1, §2

[14] = target: T2, recombinant Fc chimeric conjugate of …; assay: as above
Description: as §1, §2

[15] = target: T3, recombinant Fc chimeric conjugate of …; assay: as above
Description: as §1, §2

[16] = target: T1, recombinant Fc chimeric conjugate of …; assay: ELISA, coated antigen
Description: as §1, §2

[17] = target: T2, recombinant Fc chimeric conjugate of …; assay: ELISA, coated antigen
Description: as §1, §2

[18] = target: T4, recombinant Fc chimeric conjugate of human c-Met (human, UniProt P08581 25-932); assay: ELISA, coated antigen
T4 construct: extracellular domain; Coated on the ELISA plate
Description: as §1, §2

[19] = target: T1, recombinant Fc chimeric conjugate of …; assay: ELISA, coated antigen; supernatant IgG 425.7 ng/ml
Description: as §1, §2

[20] = target: T2, recombinant Fc chimeric conjugate of …; assay: ELISA, coated antigen; supernatant IgG 425.7 ng/ml
Description: as §1, §2

[21] = target: T3, recombinant Fc chimeric conjugate of …; assay: ELISA, coated antigen; supernatant IgG 425.7 ng/ml
Description: as §1, §2

[22] = target: T2, recombinant Fc chimeric conjugate of …; assay: ELISA, coated antigen; supernatant IgG 51.60 ng/mL
Description: as §1, §2

[23] = target: T3, recombinant Fc chimeric conjugate of …; assay: ELISA, coated antigen; supernatant IgG 51.60 ng/mL
Description: as §1, §2

[24] = target: T4, recombinant Fc chimeric conjugate of …; assay: ELISA, coated antigen; supernatant IgG 51.60 ng/mL
Description: as §1, §2

[25] = target: T1, recombinant Fc chimeric conjugate of …; assay: ELISA, coated antigen; supernatant IgG 183.28 ng/mL
Description: as §1, §2

[26] = target: T2, recombinant Fc chimeric conjugate of …; assay: as above
Description: as §1, §2

[27] = target: T3, recombinant Fc chimeric conjugate of …; assay: as above
Description: as §1, §2

[28] = target: T4, recombinant Fc chimeric conjugate of …; assay: as above
Description: as §1, §2

[29] = target: T5, recombinant Fc chimeric conjugate of human IGF-1R (human, UniProt P08069 31-935); assay: ELISA, coated antigen
T5 construct: extracellular domain; Coated on the ELISA plate
Description: as §1, §2

[30] = target: T2, recombinant Fc chimeric conjugate of …; assay: ELISA, coated antigen; supernatant IgG 69.04 ng/mL
Description: as §1, §2

[31] = target: T3, recombinant Fc chimeric conjugate of …; assay: ELISA, coated antigen; supernatant IgG 69.04 ng/mL
Description: as §1, §2

[32] = target: T4, recombinant Fc chimeric conjugate of …; assay: ELISA, coated antigen; supernatant IgG 69.04 ng/mL
Description: as §1, §2

T4 sequence (P08581 25-932, change not shown): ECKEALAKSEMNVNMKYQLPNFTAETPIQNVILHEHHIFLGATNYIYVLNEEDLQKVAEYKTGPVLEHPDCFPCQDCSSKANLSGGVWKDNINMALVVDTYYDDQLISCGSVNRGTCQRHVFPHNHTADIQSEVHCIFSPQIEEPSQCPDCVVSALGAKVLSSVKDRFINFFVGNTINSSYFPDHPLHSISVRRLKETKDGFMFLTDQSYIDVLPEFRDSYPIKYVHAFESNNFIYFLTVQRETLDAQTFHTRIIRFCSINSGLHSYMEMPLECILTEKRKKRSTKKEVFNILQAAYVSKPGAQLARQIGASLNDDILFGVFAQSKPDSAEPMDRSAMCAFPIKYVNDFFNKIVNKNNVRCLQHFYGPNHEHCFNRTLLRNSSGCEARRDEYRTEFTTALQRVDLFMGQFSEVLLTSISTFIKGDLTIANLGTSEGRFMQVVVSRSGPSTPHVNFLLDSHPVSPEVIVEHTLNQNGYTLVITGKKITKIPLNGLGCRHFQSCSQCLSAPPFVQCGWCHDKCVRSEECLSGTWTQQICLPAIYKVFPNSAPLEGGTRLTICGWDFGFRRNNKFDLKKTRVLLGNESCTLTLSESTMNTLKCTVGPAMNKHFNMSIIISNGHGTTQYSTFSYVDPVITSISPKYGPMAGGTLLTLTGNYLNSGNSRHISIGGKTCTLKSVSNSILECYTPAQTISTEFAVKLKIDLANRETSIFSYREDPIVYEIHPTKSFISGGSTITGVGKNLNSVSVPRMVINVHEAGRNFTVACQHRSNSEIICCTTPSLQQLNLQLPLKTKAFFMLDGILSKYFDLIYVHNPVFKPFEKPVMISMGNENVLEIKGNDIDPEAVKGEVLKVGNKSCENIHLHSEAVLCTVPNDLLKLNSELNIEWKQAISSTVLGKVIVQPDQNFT
T3 sequence (P21860 20-643, change not shown): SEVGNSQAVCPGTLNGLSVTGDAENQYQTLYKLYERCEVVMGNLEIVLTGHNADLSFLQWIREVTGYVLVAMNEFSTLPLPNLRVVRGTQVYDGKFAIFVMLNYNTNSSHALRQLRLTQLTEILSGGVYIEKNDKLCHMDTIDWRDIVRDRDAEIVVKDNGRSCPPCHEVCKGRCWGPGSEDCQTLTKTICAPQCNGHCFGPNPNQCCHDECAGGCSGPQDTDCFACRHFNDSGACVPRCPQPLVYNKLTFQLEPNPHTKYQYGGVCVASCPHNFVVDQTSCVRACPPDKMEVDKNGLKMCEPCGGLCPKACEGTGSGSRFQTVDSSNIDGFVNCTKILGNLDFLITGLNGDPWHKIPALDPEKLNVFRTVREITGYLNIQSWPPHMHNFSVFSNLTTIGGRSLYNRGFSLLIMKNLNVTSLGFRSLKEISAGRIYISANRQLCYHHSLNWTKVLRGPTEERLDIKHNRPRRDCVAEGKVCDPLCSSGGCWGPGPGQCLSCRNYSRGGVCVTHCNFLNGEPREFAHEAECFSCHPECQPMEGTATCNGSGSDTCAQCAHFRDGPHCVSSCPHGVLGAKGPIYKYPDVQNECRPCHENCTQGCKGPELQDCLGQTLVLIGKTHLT
T5 sequence (P08069 31-935, change not shown): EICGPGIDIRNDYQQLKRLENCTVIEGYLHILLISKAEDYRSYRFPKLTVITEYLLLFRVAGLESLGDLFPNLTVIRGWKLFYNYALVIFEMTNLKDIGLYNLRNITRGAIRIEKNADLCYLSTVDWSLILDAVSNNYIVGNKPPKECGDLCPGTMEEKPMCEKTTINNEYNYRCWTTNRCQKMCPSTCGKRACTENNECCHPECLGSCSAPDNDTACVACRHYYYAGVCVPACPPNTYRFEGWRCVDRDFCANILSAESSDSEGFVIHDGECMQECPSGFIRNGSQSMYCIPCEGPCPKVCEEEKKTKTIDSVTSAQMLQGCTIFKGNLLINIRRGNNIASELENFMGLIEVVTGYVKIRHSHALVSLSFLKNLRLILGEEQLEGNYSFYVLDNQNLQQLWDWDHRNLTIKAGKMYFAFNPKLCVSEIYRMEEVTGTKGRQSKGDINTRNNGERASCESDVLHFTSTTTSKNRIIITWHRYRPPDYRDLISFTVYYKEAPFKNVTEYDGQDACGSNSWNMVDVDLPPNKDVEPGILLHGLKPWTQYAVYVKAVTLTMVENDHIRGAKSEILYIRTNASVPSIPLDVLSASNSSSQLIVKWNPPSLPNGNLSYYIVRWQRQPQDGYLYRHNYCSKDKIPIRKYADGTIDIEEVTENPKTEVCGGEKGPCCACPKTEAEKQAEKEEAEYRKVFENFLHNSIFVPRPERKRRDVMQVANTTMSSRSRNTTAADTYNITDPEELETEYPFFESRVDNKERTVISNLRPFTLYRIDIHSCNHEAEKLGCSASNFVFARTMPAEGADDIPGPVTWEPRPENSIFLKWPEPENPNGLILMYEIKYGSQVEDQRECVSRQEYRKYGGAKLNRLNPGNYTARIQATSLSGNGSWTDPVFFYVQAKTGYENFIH

Optical density (OD) [1]: 1.1 OD
Optical density (OD) [2]: 1.8 OD
Optical density (OD) [3]: 0.8 OD
B1: Antibody 86 (antibody, V domains shown)
VH: QEQLKESGGGLVTPGGTLTLTCTVSGIDLSNYAMVWVRQAPGKGLEWIGIIYTTASTTYANWAKGRFTISKTSTTVDLKITSPTTEDTATYFCVRRSGWDGFDPWGPGTLVTVSS
VL: AQVLTQTPASVSAAVGGTVTINCQASESISSYLNWYQQKPGQPPKRLIYRTSTLASGVPSRFKGSGSGTDFTLTISGVECADAATYYCQQDWSSSDVENVFGGGTEVVVK
notes: rabbit IgG in B-cell supernatant

binding result [16]: no binding (tested: OD 0.1 or lower)
binding result [17]: no binding (tested: OD 0.1 or lower)
binding result [18]: no binding (tested: OD 0.1 or lower)
B6: Antibody 077.D03 (antibody, V domains shown)
VH: QSVEESGGRLVTPGTPLTLTCTVSGIDLSSNAMSWVRQAPGKGLEWIGFISSSGTTYYASWAKGRFTISKTSTTVDLKITSPTTEDTATYFCTRFDLWGQGTLVTVSS
VL: DVVMTQTPASVSEPVGGTVTINCQASQSITTALAWYQQKPGQPPKLLIYKASTLASGVSSRFKGSGSGAEYTLTISDLECADAATYYCQCTGYDTSYVGGFGGGTEVVVK
notes: as for B1

Optical density (OD) [19]: 2.5 OD
Optical density (OD) [20]: 2.9 OD
Optical density (OD) [21]: 1.9 OD
B7: Antibody 65 (antibody, V domains shown)
VH: QSVEESGGRLVTPGTPLTLTCTVSGFSLNNYYMTWVRQAPGKGLEWIGVISGSATTYYASWAKGRFTISQTSTTVDLRITSPTTEDTATYFCARSLTADIIDYYNIWGPGTLVTVSL
VL: DVVMTQTPASVSEPVGGTVTIKCQASEDINALLAWYQQKPGQPPKLLIYVASYLQSGVPSRFKGSGSGTEYTLTISGVQCADAATYYCQSAYDSSGYVGAFGGGTEVVVK
notes: as for B1

Optical density (OD) [25]: 0.405 OD
Optical density (OD) [26]: 0.402 OD
Optical density (OD) [27]: 1.14 OD
Optical density (OD) [28]: 0.7 OD
B9: Antibody B08 (antibody, V domains shown)
VH: QEHLVESGGGLVQPEGSLTLTCTASGFDFSSDDMSWVRQAPGKGLEWIGVIGTGNGGTYYASWAKGRFTISKTSSTTVTLQMTSLTAADTATYFCAAFWGLWGPGTLVTVSS
VL: AQVLTQTASPVSAAVGGTVTITCQSSQSVYNNIRLAWFQQKPGQPPKLLIYTTSSLASGVPSRFKGSGSGTQFTLTISDLECDDAATYYCAGGYSSDIYTFGGGTEVVVR
notes: as for B1

binding result [29]: no binding (tested: OD 0.1 or lower)
Optical density (OD) [30]: 0.119 OD
Optical density (OD) [31]: 1.76 OD
Optical density (OD) [32]: 0.149 OD
B10: Antibody D11 (antibody, V domains shown)
VH: QEHLVESGGGLVQPEGSLTLTCTASGFDFSSDDMSWVRQAPGKGLEWIGVIGTGNGGTYYASWAKGRFTISKTSSTTVTLQMTSLTAADTATYFCAAFWGLWGPGTLVTVSS
VL: AQVLTQTPSPVSAAVGGTVTINCQSSQNVYRNNRLAWFQQKPGQPPKLLIYTASTLASGVPSRFKGSGSGTQFTLTISDLECDDAATYYCAGGYSTDIYTFGGGTEVVVR
notes: as for B1

Continued, binder first:

B2: Antibody 48 (antibody, V domains shown)
VH: QSLEESGGDLVKPGASLTLTCTASGFDLNSDYWICWVRQAPGKGLEWIACIDTGYGDIYYASWAKGRFTISKTSSTTVTLQMTSLTAADTATYFCAREIIFHFNLWGPGTLVTVSS
VL: DVVMTQTPASVSEPVGGTVTIKCQASQSIRSYLAWYQQKPGQPPKVLIYKASTLASGVSSRFKGSGSGTQFTLTISDLECADAATYYCQGGVELNNYLYNPFGGGTEVVVK
notes: as for B1
Optical density (OD) [4]: 1.2 OD
Optical density (OD) [5]: 1.2 OD
Optical density (OD) [6]: 1.1 OD

B3: Antibody 37 (antibody, V domains shown)
VH: QSLEESGGDLVQPEGSLTLTCKASGLDFSSSYWICWVRQAPGKGLEWIACIDTGYGDIYYASWAKGRFTMSKTSSTTVTLQMTSLTAADTATYFCAREKIFHFNLWGPGTLVTVSS
VL: DVVMTQTPASVSEPVGGTVTIKCQASQSIKNYLSWYQQKPGQPPKVLLYKASTLASGVSSRFKGSGSGTQFTLTISDLECADAATYYCQGGVEVNNYLYNPFGGGTEVVVK
notes: as for B1
Optical density (OD) [7]: 2.9 OD
Optical density (OD) [8]: 2.7 OD
Optical density (OD) [9]: 2.7 OD

B4: Antibody 49 (antibody, V domains shown)
VH: QSLEESGGDLVKPGASLTLTCTASGFDLNSNYWICWVRQAPGKGLEWIACIDTGYGDIYYASWAKGRFTISKTSSTTVTLQMTSLTAADTATYFCAREIIFHFNLWGPGTLVTVSS
VL: DVVMTQTPASVSEPVGGTVTIKCQASQSISSYLAWYQQKPGQPPKVLIYKASTLASGVSSRFKGSGSGTQFTLTISDLECADAATYYCQGGVEVNNYLYNPFGGGTEVVVK
notes: as for B1
Optical density (OD) [10]: 2.5 OD
Optical density (OD) [11]: 0.4 OD
Optical density (OD) [12]: 0.6 OD

B5: Antibody 25 (antibody, V domains shown)
VH: QSLEESGGDLVKPGASLTLICTASGFDLNTNYWICWVRQAPGKGLEWIACIDSGYGDIYYATWAKGRFTISKASSTTVTLQMTSLTAADTATYFCAREIIFHFNLWGPGTLVTVSS
VL: DVVMTQTPASVSEPVGGTVTIKCQASQSIRSYLAWYQQKPGQPPKVLIYKASTLASGVSSRFKGSGSGTQFTLTISDLECADAATYYCQGGVEFNNYLYNSFGGGTEVVVK
notes: as for B1
Optical density (OD) [13]: 3.3 OD
Optical density (OD) [14]: 2.4 OD
Optical density (OD) [15]: 2.6 OD

B8: Antibody 77.B08 (antibody, V domains shown)
VH: QEHLVESGGGLVQPEGSLTLTCTASGFDFSSDDMSWVRQAPGKGLEWIGVIGTGNGGTYYASWAKGRFTISKTSSTTVTLQMTSLTAADTATYFCAAFWGLWGPGTLVTVSS
VL: AQVLTQTASPVSTPVGGTVTITCQSSQSVYNNNRLAWFQQKPGQPPKLLIYTASTLASGVPSRFKGSGSGTQFTLTISDLECDDAATYYCAGGYSTDIYTFGGGTEVVVR
notes: as for B1
Optical density (OD) [22]: 0.112 OD
Optical density (OD) [23]: 0.242 OD
Optical density (OD) [24]: 0.144 OD
